Data on 45 sequences can be found in the supplement of paper PMC9942255.

This data set has as its system Bacillus subtilis DB104 (SP-AmyQ fusion secretion). Kind of data set: AmyQ secretion efficiency, weighted average sort bin (1 = best secretion, 10 = worst) (bin number (weighted average, 1-10)); higher = lower secretion efficiency. Summed up:
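In this assay, the secretion score is defined as the average bin number weighted by read frequency, normalised to beads per bin, with low-abundance sequences not counted. B. subtilis DB104 cells expressing mature AmyQ behind designed signal peptides (amyE-integrated) were enclosed with fluorescein-starch in ~65 nL alginate beads at about 0.3 cells per bead. Beads grew about 13 h at room temperature, were stained with nile red, and occupied beads went into 10 equally populated green/red fluorescence ratio bins by large-particle flow cytometry, whose amplicons were Illumina-sequenced.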

Turning to “MKRLTLVCSIVFILRKLFYRLKIGTIPIQKLPVYKASAKTA”, the AmyQ secretion efficiency was found to be 6.99.

The sequence MLCVMMLLFSAIASFPVSAQTKDQ yielded an AmyQ secretion efficiency of 6.25. In the case of MKKKKRKFVLIVCIIFTSALFPTFSSVTAAQG it was 1.03.

Take MFKKLRKKKKRLTFSLSLVLPLDGHAKAQEV: the AmyQ secretion efficiency is 6.86. In the case of MRKTIFAFLTGLMMFGTITASPSTASASPD it was 2.04; in that of MKKLVLCVSILAVILSGVALVQLS, 5.7; in that of MFFVLMAFIICLSLILSVLAAPPSGAKAESV, 5.38. In the case of MKKLVLCVSILAVILSGVYLTQLS it was 5.92. In the case of MKNMSKLVVSVTLFFSFLTIGPLAHAQNS it was 1.41; in that of MKNMSCKLVVSVTLFFSFLTIGPLMHAQNS, 1.39. The sequence MKKAAAVLLSLGLVFGFSYGAGHVDEAKTK registered an AmyQ secretion efficiency of 7.45. Turning to MRFTKTVGFLSVLGLAAVFPLTAQAEKA, the AmyQ secretion efficiency is 2.59. In the case of MRGKSAVLLSLIMLIAGFLISFSFQK it was 9.36; in that of MKLSVKIAGVLTVAAAAMKATAKGN, 7.76; in that of MRSKKLWISLLFALTLIFTMAFSNMSCQAAGK, 2.77.

In the case of MKLSVKIALVLIVAAAAMTAKMYATAKGN, the AmyQ secretion efficiency was determined as 3.77. In the case of MNLRKILLSSALSLGMLVVSAAPVLATSS it was 1.4. Sequence MRFTKVVGFLSVLGLAAVFPLTAQAADD displayed an AmyQ secretion efficiency of 3.85.

MRKKRVITCVMAASLTLGSLLTAVTASAKED gave an AmyQ secretion efficiency of 3.16. In the case of MRKKKLWISLLFALTLIFTMAFSNMSAQAAGK it was 2.97; in that of MLKKVILAAFILVGSTLGRKSFSSKASAKHV, 6.14; in that of MKLSVKIRRRKTVAAAAMTAKMYATAKGN, 7.97. MKRTWNVCLTALLSVLLVAGSVKRKKHAEAKKP showed an AmyQ secretion efficiency of 7.43. In the case of MFNRLFRVCFLAALIMAFTLPNSVYYQKP it was 6.22; in that of MKKKIVAGLAVSAVVRRRRAAAPAEAKTI, 7.4; in that of MKRIRIPMTLALGAALTIAPLSFESAEEN, 5.54. MLKKKWMVGLLAGCLAAGGFSYNAFATPR registered an AmyQ secretion efficiency of 3.48. With MKRIRIPMTLALGAALTIAPLSFASKEEN, the AmyQ secretion efficiency turned out to be 6.64.

MKKGIIRFLLVSFVLFFALSTGITGVQGAPA registered an AmyQ secretion efficiency of 4.19.

Consider MKSKGSIMACLILFSFTITTFISVETISAFSN, for which the AmyQ secretion efficiency turned out to be 5.39.

On to MKVLLSALLLLLFAFEPSISGKKL, for which the AmyQ secretion efficiency was found to be 7.18. In the case of MKKKQVMLALTAAAGLHSAPAAKAAPL it was 3.17. In turn, MKLKKRVSMFRKKKRKCGGLFVTPAKAVKT yielded an AmyQ secretion efficiency of 7.44.

For the sequence MKKGYSTTSTGVLVTTVFLVKQQESVAQAKQL, the AmyQ secretion efficiency worked out at 7.95. With MKLKKRVSMFLVALTMCGGLFVTPFKAVKT, the AmyQ secretion efficiency turned out to be 6.39. In turn, MMKKGLLAGALTATVLFRKCAVRVPGIISPKTAEAASQ showed an AmyQ secretion efficiency of 6.57.

Take MKWMCSICCAAVLLAGGAAQADDE: the AmyQ secretion efficiency is 6.18. In the case of MLTFLIGAGVAAVILSGWFIADHQTHSQEM it was 6.55; in that of MKRIRIPMTLALGAALTIAPLSFTGFGPAGASAEEN, 3.89. The sequence MGLGKKLSVAVAASFMSLSISLPGVQKAEG showed an AmyQ secretion efficiency of 3.62. In the case of MLLNLAAGLTASAIVGTTLVVTPAEAATI it was 6.11; in that of MKKRKRRNFKRFIAAFLVLALMISLVPADALAKST, 1.92; in that of MKKWIYVVLVLSIAGIGGFSVHCASS, 6.47. In the case of MKKSGSCQKTLAVILSGVALTQLS it was 4.76; in that of MRSKKTWISLLFALTLIFTMAFSNMSAQAAGK, 3.25.
